Results published in the supplement of paper PMC11246515.
± gives the standard deviation of the averaged measurements.

Test: total protein half-life in vivo (active degradation + dilution); higher = more stable protein
[1] = E. coli NCM3722 delta-clpP delta-lon delta-hslV, growth: N-lim chemostat, doubling time 6 h
[2] = E. coli NCM3722 delta-clpP, growth: N-lim chemostat, doubling time 6 h
[3] = E. coli NCM3722 delta-hslV, growth: N-lim chemostat, doubling time 6 h
[4] = E. coli NCM3722 delta-lon, growth: N-lim chemostat, doubling time 6 h
[5] = wild type E. coli NCM3722, growth: C-lim chemostat, doubling time 3 h
[6] = wild type E. coli NCM3722, growth: C-lim chemostat, doubling time 12 h
[7] = wild type E. coli NCM3722, growth: N-lim chemostat, doubling time 6 h
[8] = wild type E. coli NCM3722, growth: N-lim chemostat, doubling time 12 h
[9] = wild type E. coli NCM3722, growth: P-lim chemostat, doubling time 6 h
[10] = wild type E. coli NCM3722, growth: P-lim chemostat, doubling time 12 h
[11] = wild type E. coli NCM3722, growth: C-lim chemostat, doubling time 6 h
[12] = E. coli NCM3722 delta-smpB, growth: N-lim chemostat, doubling time 6 h

Row | Sequence | total protein half-life in vivo [1] | total protein half-life in vivo [2] | total protein half-life in vivo [3] | total protein half-life in vivo [4] | total protein half-life in vivo [5] | total protein half-life in vivo [6] | total protein half-life in vivo [7] | total protein half-life in vivo [8] | total protein half-life in vivo [9] | total protein half-life in vivo [10] | total protein half-life in vivo [11] | total protein half-life in vivo [12]
1 | MLKRYLVLSVATAAFSLPSLVNAAQQNILSVHILNQQTGKPAADVTVTLEKKADNGWLQLNTAKTDKDGRIKALWPEQTATTGDYRVVFKTGDYFKKQNLESFFPEIPVEFHINKVNEHYHVPLLLSQYGYSTYRGS | 5.28 ± 1.2 h | 5.47 ± 0.54 h | 5.53 h | 5.8 ± 0.16 h | > 4 h | 7.94 ± 2 h | 5.83 ± 0.21 h | 8.97 ± 0.37 h | 4.42 ± 0.68 h | 8.8 ± 0.6 h |  | 
2 | MSDNLPWKTWTPDDLAPPQAEFVPIVEPEETIIEEAEPSLEQQLAQLQMQAHEQGYQAGIAEGRQQGHKQGYQEGLAQGLEQGLAEAKSQQAPIHARMQQLVSEFQTTLDALDSVIASRLMQMALEAARQVIGQTPTVDNSALIKQIQQLLQQEPLFSGKPQLRVHPDDLQRVDDMLGATLSLHGWRLRGDPTLHPGGCKVSADEGDLDASVATRWQELCRLAAPGVV |  |  |  |  | 2.19 ± 0.17 h | 5.33 ± 0.28 h |  |  |  |  | 3.64 ± 0.27 h | 
3 | MRKITQAISAVCLLFALNSSAVALASSPSPLNPGTNVARLAEQAPIHWVSVAQIENSLAGRPPMAVGFDIDDTVLFSSPGFWRGKKTFSPESEDYLKNPVFWEKMNNGWDEFSIPKEVARQLIDMHVRRGDAIFFVTGRSPTKTETVSKTLADNFHIPATNMNPVIFAGDKPGQNTKSQWLQDKNIRIFYGDSDNDITAARDVGARGIRILRASNSTYKPLPQAGAFGEEVIVNSEY [P0AE22] | 6.66 ± 1.4 h |  | 6.31 ± 0.14 h |  | 3.637 ± 0.033 h | 11.7 ± 2.4 h | 5.79 ± 0.22 h | > 16 h | 6.42 ± 0.61 h | 13.2 ± 0.27 h |  | 5.83 ± 0.2 h
4 | MSFFISDAVAATGAPAQGSPMSLILMLVVFGLIFYFMILRPQQKRTKEHKKLMDSIAKGDEVLTNGGLVGRVTKVAENGYIAIALNDTTEVVIKRDFVAAVLPKGTMKAL [P0ADZ7] | 5.95 ± 0.52 h | 6.69 ± 0.75 h | 5.78 ± 0.33 h | 5.892 ± 0.037 h | 3.16 ± 0.14 h | 11.5 ± 0.56 h | 5.64 ± 0.49 h | 12.8 ± 2 h | 6.55 ± 0.62 h | 13 ± 0.39 h | 6.018 ± 0.04 h | 6.28 ± 0.31 h
5 | MSDDVALPLEFTDAAANKVKSLIADEDNPNLKLRVYITGGGCSGFQYGFTFDDQVNEGDMTIEKQGVGLVVDPMSLQYLVGGSVDYTEGLEGSRFIVTNPNAKSTCGCGSSFSI [P0ACC3] | 5.22 ± 1.4 h |  | 2.03 ± 0.4 h | 3.62 ± 0.25 h | 1.62 ± 0.23 h | 3.62 ± 0.69 h | 1.71 ± 0.19 h | 2.43 ± 0.26 h | 2.4 ± 0.14 h | 4.84 ± 0.42 h | 2.89 ± 0.6 h | 1.74 ± 0.059 h
6 | MNLDDKSLFLDAMEDVQPLKRATDVHWHPTRNQRAPQRIDTLQLDNFLTTGFLDIIPLSQPLEFRREGLQHGVLDKLRSGKYPQQASLNLLRQPVEECRKMVFSFIQQALADGLRNVLIIHGKGRDDKSHANIVRSYVARWLTEFDDVQAYCTALPHHGGSGACYVALRKTAQAKQENWERHAKRSR |  | 3.15 ± 0.09 h | 0.92 ± 0.056 h |  | 0.985 h | 1.42 h | 1.06 ± 0.055 h | 1.33 ± 0.064 h | 1.28 h | 1.8 ± 0.54 h | 1.35 h | 0.889 h
7 | MKKLTIGLIGNPNSGKTTLFNQLTGSRQRVGNWAGVTVERKEGQFSTTDHQVTLVDLPGTYSLTTISSQTSLDEQIACHYILSGDADLLINVVDASNLERNLYLTLQLLELGIPCIVALNMLDIAEKQNIRIEIDALSARLGCPVIPLVSTRGRGIEALKLAIDRYKANENVELVHYAQPLLNEADSLAKVMPSDIPLKQRRWLGLQMLEGDIYSRAYAGEASQHLDAALARLRNEMDDPALHIADARYQCIAAICDVVSNTLTAEPSRFTTAVDKIVLNRFLGLPIFLFVMYLMFLLAINIGGALQPLFDVGSVALFVHGIQWIGYTLHFPDWLTIFLAQGLGGGINTVLPLVPQIGMMYLFLSFLEDSGYMARAAFVMDRLMQALGLPGKSFVPLIVGFGCNVPSVMGARTLDAPRERLMTIMMAPFMSCGARLAIFAVFAAAFFGQNGALAVFSLYMLGIVMAVLTGLMLKYTIMRGEATPFVMELPVYHVPHVKSLIIQTWQRLKGFVLRAGKVIIIVSIFLSAFNSFSLSGKIVDNINDSALASVSRVITPVFKPIGVHEDNWQATVGLFTGAMAKEVVVGTLNTLYTAENIQDEEFNPAEFNLGEELFSAIDETWQSLKDTFSLSVLMNPIEASKGDGEMGTGAMGVMDQKFGSAAAAYSYLIFVLLYVPCISVMGAIARESSRGWMGFSILWGLNIAYSLATLFYQVASYSQHPTYSLVCILAVILFNIVVIGLLRRARSRVDIELLATRKSVSSCCAASTTGDCH |  |  | 0.616 h |  | 0.812 ± 0.12 h | 1.58 ± 0.19 h | 0.841 h |  |  | 4.22 h | 0.749 h | 0.941 ± 0.47 h
8 | MARAVHRSGLVALGIATALMASCAFAAKDVVVAVGSNFTTLDPYDANDTLSQAVAKSFYQGLFGLDKEMKLKNVLAESYTVSDDGITYTVKLREGIKFQDGTDFNAAAVKANLDRASDPANHLKRYNLYKNIAKTEAIDPTTVKITLKQPFSAFINILAHPATAMISPAALEKYGKEIGFYPVGTGPYELDTWNQTDFVKVKKFAGYWQPGLPKLDSITWRPVADNNTRAAMLQTGEAQFAFPIPYEQATLLEKNKNIELMASPSIMQRYISMNVTQKPFDNPKVREALNYAINRPALVKVAFAGYATPATGVVPPSIAYAQSYKPWPYDPVKARELLKEAGYPNGFSTTLWSSHNHSTAQKVLQFTQQQLAQVGIKAQVTAMDAGQRAAEVEGKGQKESGVRMFYTGWSASTGEADWALSPLFASQNWPPTLFNTAFYSNKQVDDFLAQALKTNDPAEKTRLYKAAQDIIWQESPWIPLVVEKLVSAHSKNLTGFWIMPDTGFSFEDADLQ | 5.029 ± 0.012 h | 5.36 ± 0.42 h | 6.42 ± 0.61 h | 6.43 ± 0.089 h | 3.21 ± 0.061 h | 13 ± 0.86 h | 6.04 ± 0.39 h | 13.2 ± 0.28 h | 5.85 ± 0.27 h | 13.3 ± 0.87 h | 6.6 ± 0.26 h | 5.72 ± 0.071 h
9 | MARKTKQEAQETRQHILDVALRLFSQQGVSSTSLGEIAKAAGVTRGAIYWHFKDKSDLFSEIWELSESNIGELELEYQAKFPGDPLSVLREILIHVLESTVTEERRRLLMEIIFHKCEFVGEMAVVQQAQRNLCLESYDRIEQTLKHCIEAKMLPADLMTRRAAIIMRGYISGLMENWLFAPQSFDLKKEARDYVAILLEMYLLCPTLRNPATNE [P0ACS9] | 5.34 ± 0.52 h |  | 6.2 h | 5.24 h |  | 10.8 ± 0.63 h | 5.74 h | 11.6 h | 4.88 h | 7.48 h | 5.61 h | 5.82 ± 1.9 h
